{"source": "patent US5525708", "about": "“Covalent dimer of kit ligand” (CytoMed, Inc., dated 1996)", "binders": {"B1": {"name": "murine covalent dimer kit ligand (KL-CD), biologically active form (ligand)", "chain": "MMKKTQTWIITCIYLQLLLFNPLVKTKEICGNPVTDNVKDITKLVANLPNDYMITLNYVAGMDVLPSHCWLRDMVIQLSLSLTTLLDKFSNISEGLSNYSIIDKLGKIVDDLVLCMEENAPKNIKESPKRPETRSFTPEEFFSIFNRSIDAFKDFMVASDTSDCV", "modifications": "at least one intermolecular disulfide bond between one of the four cysteines (4, 43, 89, 138) of one monomer and one of the four cysteines of the other monomer; which cysteines is not determined"}}, "key": {"[1]": {"biological_target": "c-kit proto-oncogene (receptor of KL) on human cells (human, UniProt P10721)", "experiment": "cell-based or functional assay"}, "[2]": {"biological_target": "c-kit proto-oncogene (receptor of KL) on murine cells (murine, UniProt P05532)", "experiment": "cell-based or functional assay"}}}
{"binder": "B1", "values": [{"measurement": "proliferation of human cell lines (M07e), 3H-thymidine incorporation", "setting": "[1]", "result": 10, "unit": "fold"}, {"measurement": "proliferation of murine mast cells (BMMC), 3H-thymidine incorporation", "setting": "[2]", "result": 10, "unit": "fold"}]}
